Data published in publication PMC10838266 (Nature Communications, 2024).

B1: Phosphoglycerate kinase 1, wild-type, His-tagged recombinant (enzyme, UniProt P00558 1-417, looked up)
chain: MSLSNKLTLDKLDVKGKRVVMRVDFNVPMKNNQITNNQRIKAAVPSIKFCLDNGAKSVVLMSHLGRPDGVPMPDKYSLEPVAVELKSLLGKDVLFLKDCVGPEVEKACANPAAGSVILLENLRFHVEEEGKGKDASGNKVKAEPAKIEAFRASLSKLGDVYVNDAFGTAHRAHSSMVGVNLPQKAGGFLMKKELNYFAKALESPERPFLAILGGAKVADKIQLINNMLDKVNEMIIGGGMAFTFLKVLNNMEIGTSLFDEEGAKIVKDLMSKAEKNGVKITLPVDFVTADKFDENAKTGQATVASGIPAGWMGLDCGPESSKKYAEAVTRAKQIVWNGPVGVFEWEAFARGTKALMDEVVKATSRGCITIIGGGDTATCCAKWNTEDKVSHVSTGGGASLELLEGKVLPGVDALSNI
notes: Phosphoglycerate kinase 1 (PGK1), wild-type, cloned into the BamHI and XhoI sites of pET32a; also called PGK1; His-tagged PGK1

Columns and labels:
[1] = target: Hrs (UniProt O14964); assay: co-immunoprecipitation from cell lysate; conditions: reference: wild type; sites S203
[2] = target: T1, GST fused to the cytoplasmic domain of the epidermal growth factor receptor (UniProt P00533 669-1210); assay: pull-down; GST-fusion proteins on glutathione beads incubated with soluble proteins (100 nM), 4 °C, 1 h, PBS with 0.05% Triton X-100 and protease inhibitors; two washes; SDS-PAGE with Coomassie staining or western blot; conditions: both partners purified
T1 construct: Epidermal growth factor receptor (EGFR), cytoplasmic domain appended to the carboxy terminus of GST in pGEX-4T-1; also called GST-EGFR cytoplasmic domain; source: E. coli BL21, purified on glutathione-Sepharose 4B beads; not shown: GST, N-terminal, kept

[3] = target: B1; assay: pull-down; competition with purified components: increasing level of an EGFR peptide (dileucine signal or mutated) added to the pull-down of PGK1 by GST-EGFR; conditions: both partners purified

For PGK1 (from UniProt P00558) S203A, the “binding against the reference” value [1] was “weaker”.

B1: binds [2].

B2: EGFR peptide, wild-type (contains the dileucine sorting signal) (peptide)
peptide: PNQALLRILKETE
notes: Stretch of the juxta-membrane region of the epidermal growth factor receptor (EGFR) with the dileucine sorting signal; also called peptide that contains the relevant dileucine motif; source: synthetic peptide (core facility)
B2: binds [3].
